# Results published in the supplement of paper PMC9112550, “Optimization of the antimicrobial peptide Bac7 by deep mutational scanning” (BMC Biology, 2022).
# System: Escherichia coli TOP10
# Experiment: shrunken log2 fold change of peptide-encoding DNA abundance (4.5 h post-induction vs induction); higher = less antimicrobial activity (less host growth inhibition)
# Conditions: time post-induction: 4.5 h; library: site-saturation at positions 5, 18, 19, 20
# 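Note: peptides expressed intracellularly from a pBAD plasmid library in pooled LB shake-flask culture, induced with 0.3% L-arabinose, DNA abundance read by NGS, three biological replicates, DESeq2 with apeglm shrinkage.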
row,Sequence,shrunken log2 fold change
1,RRIRHRPPRLPRPRPRPGFNPRP,-0.0117
2,RRIRYRPPRLPRPRPRPAQGPRP,-0.0469
3,RRIRQRPPRLPRPRPRPSPHPRP,-0.511
4,RRIRCRPPRLPRPRPRPDKRPRP,0.00837
5,RRIRERPPRLPRPRPRPGCNPRP,-0.0442
6,RRIRFRPPRLPRPRPRPPWNPRP,-0.128
7,RRIRARPPRLPRPRPRPVMMPRP,0.0914
8,RRIRYRPPRLPRPRPRPKYDPRP,-0.324
9,RRIRQRPPRLPRPRPRPGQYPRP,-0.156
10,RRIRIRPPRLPRPRPRPPSFPRP,-0.213
11,RRIRQRPPRLPRPRPRPGWQPRP,-0.00211
12,RRIRCRPPRLPRPRPRPAEMPRP,-0.0594
13,RRIRHRPPRLPRPRPRPGAQPRP,0.187
14,RRIRGRPPRLPRPRPRPRGDPRP,0.481
15,RRIRPRPPRLPRPRPRPSHWPRP,0.959
16,RRIRARPPRLPRPRPRPESMPRP,0.77
17,RRIRWRPPRLPRPRPRPKDRPRP,0.159
18,RRIRDRPPRLPRPRPRPDCMPRP,0.781
19,RRIRARPPRLPRPRPRPHASPRP,-0.0111
20,RRIRRRPPRLPRPRPRPPYKPRP,0.114
21,RRIRIRPPRLPRPRPRPNLMPRP,-0.377
22,RRIRWRPPRLPRPRPRPGNYPRP,-0.00177
23,RRIRFRPPRLPRPRPRPYTFPRP,-1.3
24,RRIRWRPPRLPRPRPRPVCKPRP,0.643
25,RRIRYRPPRLPRPRPRPARQPRP,0.279

row,Sequence,shrunken log2 fold change
1,RRIRNRPPRLPRPRPRPKPNPRP,0.513
2,RRIRERPPRLPRPRPRPLSDPRP,-0.0828
3,RRIRFRPPRLPRPRPRPSDLPRP,-0.0388
4,RRIRPRPPRLPRPRPRPFPDPRP,0.00657
5,RRIRCRPPRLPRPRPRPDLYPRP,-0.0793
6,RRIRARPPRLPRPRPRPGHLPRP,0.337
7,RRIRIRPPRLPRPRPRPGPWPRP,0.0988
8,RRIRQRPPRLPRPRPRPNEYPRP,-1.18
9,RRIRARPPRLPRPRPRPDFRPRP,0.0149
10,RRIRDRPPRLPRPRPRPHLIPRP,-0.0328
11,RRIRLRPPRLPRPRPRPYGYPRP,-0.01
12,RRIRKRPPRLPRPRPRPPRAPRP,1.15
13,RRIRQRPPRLPRPRPRPHYPPRP,-0.219
14,RRIRFRPPRLPRPRPRPYLHPRP,-0.454
15,RRIRMRPPRLPRPRPRPLNNPRP,0.0119
16,RRIRVRPPRLPRPRPRPRYMPRP,-0.528
17,RRIRYRPPRLPRPRPRPYCGPRP,-0.456
18,RRIRHRPPRLPRPRPRPDCMPRP,-0.291
19,RRIRTRPPRLPRPRPRPPLTPRP,0.13
20,RRIRMRPPRLPRPRPRPWHGPRP,-0.0653
21,RRIRSRPPRLPRPRPRPLAGPRP,0.225
22,RRIRSRPPRLPRPRPRPMASPRP,0.088
23,RRIRSRPPRLPRPRPRPWCHPRP,-0.4
24,RRIRHRPPRLPRPRPRPGAEPRP,0.13
25,RRIRRRPPRLPRPRPRPMKLPRP,-0.123

row,Sequence,shrunken log2 fold change
1,RRIRQRPPRLPRPRPRPHNFPRP,-0.154
2,RRIRGRPPRLPRPRPRPGMEPRP,1.54
3,RRIRCRPPRLPRPRPRPYWGPRP,-0.427
4,RRIRRRPPRLPRPRPRPTQLPRP,0.628
5,RRIRDRPPRLPRPRPRPWRPPRP,0.0967
6,RRIRNRPPRLPRPRPRPTHNPRP,-0.114
7,RRIRARPPRLPRPRPRPFQKPRP,0.121
8,RRIRARPPRLPRPRPRPYRRPRP,-0.174
9,RRIRIRPPRLPRPRPRPSTSPRP,-0.492
10,RRIRTRPPRLPRPRPRPAVAPRP,0.422
11,RRIRRRPPRLPRPRPRPWMMPRP,0.0519
12,RRIRCRPPRLPRPRPRPPVTPRP,0.0706
13,RRIRPRPPRLPRPRPRPGEVPRP,0.605
14,RRIRVRPPRLPRPRPRPRGAPRP,0.567
15,RRIRCRPPRLPRPRPRPDIGPRP,-0.293
16,RRIRYRPPRLPRPRPRPNVDPRP,-1.26
17,RRIRTRPPRLPRPRPRPKKSPRP,-0.106
18,RRIRQRPPRLPRPRPRPLMVPRP,-0.13
19,RRIRQRPPRLPRPRPRPKVEPRP,-0.00957
20,RRIRYRPPRLPRPRPRPEDAPRP,-0.0333
21,RRIRERPPRLPRPRPRPASYPRP,-0.0425
22,RRIRRRPPRLPRPRPRPEFPPRP,0.154
23,RRIRVRPPRLPRPRPRPCKQPRP,-0.148
24,RRIRQRPPRLPRPRPRPFVEPRP,-0.152
25,RRIRRRPPRLPRPRPRPIERPRP,0.0771

row,Sequence,shrunken log2 fold change
1,RRIRKRPPRLPRPRPRPNRHPRP,-0.0212
2,RRIRERPPRLPRPRPRPIYIPRP,-0.138
3,RRIRYRPPRLPRPRPRPYSVPRP,-0.0202
4,RRIRARPPRLPRPRPRPSHNPRP,-0.245
5,RRIRIRPPRLPRPRPRPEEYPRP,-0.0228
6,RRIRIRPPRLPRPRPRPFGNPRP,-0.118
7,RRIRNRPPRLPRPRPRPWIGPRP,-0.128
8,RRIRNRPPRLPRPRPRPSITPRP,-0.656
9,RRIRGRPPRLPRPRPRPRHMPRP,0.57
10,RRIRQRPPRLPRPRPRPRMVPRP,0.166
11,RRIRPRPPRLPRPRPRPIIPPRP,-0.339
12,RRIRQRPPRLPRPRPRPQREPRP,0.00728
13,RRIRSRPPRLPRPRPRPVAWPRP,0.0469
14,RRIRMRPPRLPRPRPRPYEYPRP,0.0662
15,RRIRARPPRLPRPRPRPKNLPRP,-0.181
16,RRIRYRPPRLPRPRPRPTKYPRP,-0.836
17,RRIRMRPPRLPRPRPRPCAGPRP,0.213
18,RRIRKRPPRLPRPRPRPDDDPRP,3.89
19,RRIRPRPPRLPRPRPRPFVKPRP,-0.133
20,RRIRVRPPRLPRPRPRPNNFPRP,1.9
21,RRIRERPPRLPRPRPRPCLPPRP,-0.259
22,RRIRWRPPRLPRPRPRPCQKPRP,-0.00776
23,RRIRWRPPRLPRPRPRPIQVPRP,-0.0332
24,RRIRGRPPRLPRPRPRPRRWPRP,0.841
25,RRIRLRPPRLPRPRPRPPCRPRP,0.0548

row,Sequence,shrunken log2 fold change
1,RRIRPRPPRLPRPRPRPDGMPRP,-0.0319
2,RRIRMRPPRLPRPRPRPMNQPRP,0.646
3,RRIRHRPPRLPRPRPRPNVLPRP,-0.0715
4,RRIRCRPPRLPRPRPRPVKQPRP,-0.222
5,RRIRQRPPRLPRPRPRPEPLPRP,0.287
6,RRIRPRPPRLPRPRPRPARFPRP,0.383
7,RRIRPRPPRLPRPRPRPPFKPRP,0.0437
8,RRIRTRPPRLPRPRPRPDTKPRP,-0.212
9,RRIRLRPPRLPRPRPRPKGLPRP,-0.0393
10,RRIRLRPPRLPRPRPRPSFKPRP,-0.572
11,RRIRYRPPRLPRPRPRPPRNPRP,0.142
12,RRIRRRPPRLPRPRPRPVTNPRP,0.266
13,RRIRTRPPRLPRPRPRPIHLPRP,0.0312
14,RRIRGRPPRLPRPRPRPYENPRP,-0.0711
15,RRIRARPPRLPRPRPRPMVDPRP,0.299
16,RRIRLRPPRLPRPRPRPQFTPRP,-0.324
17,RRIRCRPPRLPRPRPRPERGPRP,0.472
18,RRIRQRPPRLPRPRPRPEESPRP,0.0313
19,RRIRRRPPRLPRPRPRPHWYPRP,-0.404
20,RRIRARPPRLPRPRPRPAPMPRP,0.799
21,RRIRARPPRLPRPRPRPQLEPRP,0.63
22,RRIRIRPPRLPRPRPRPNDDPRP,-0.0364
23,RRIRIRPPRLPRPRPRPDGHPRP,-0.153
24,RRIRIRPPRLPRPRPRPSPDPRP,0.127
25,RRIRNRPPRLPRPRPRPFPDPRP,-0.00602

row,Sequence,shrunken log2 fold change
1,RRIRQRPPRLPRPRPRPTICPRP,-0.114
2,RRIRSRPPRLPRPRPRPYCNPRP,-0.709
3,RRIRWRPPRLPRPRPRPYYRPRP,-0.0707
4,RRIRRRPPRLPRPRPRPVMCPRP,0.0382
5,RRIRERPPRLPRPRPRPMHNPRP,-0.437
6,RRIRERPPRLPRPRPRPRCVPRP,0.0448
7,RRIRCRPPRLPRPRPRPEIAPRP,0.193
8,RRIRCRPPRLPRPRPRPAAHPRP,0.37
9,RRIRGRPPRLPRPRPRPGHNPRP,0.0636
10,RRIRFRPPRLPRPRPRPDKKPRP,-0.0461
11,RRIRNRPPRLPRPRPRPRPYPRP,-0.25
12,RRIRSRPPRLPRPRPRPAQTPRP,0.0615
13,RRIRERPPRLPRPRPRPHWFPRP,-0.128
14,RRIRFRPPRLPRPRPRPFSFPRP,-0.499
15,RRIRNRPPRLPRPRPRPLLQPRP,-0.137
16,RRIRWRPPRLPRPRPRPQPKPRP,0.294
17,RRIRRRPPRLPRPRPRPFSIPRP,-0.254
18,RRIRNRPPRLPRPRPRPHAKPRP,-0.0658
19,RRIRNRPPRLPRPRPRPGCFPRP,0.126
20,RRIRERPPRLPRPRPRPPFIPRP,-0.299
21,RRIRMRPPRLPRPRPRPCEAPRP,0.807
22,RRIRARPPRLPRPRPRPQLWPRP,0.569
23,RRIRVRPPRLPRPRPRPTIAPRP,0.335
24,RRIRSRPPRLPRPRPRPGLQPRP,0.652
25,RRIRERPPRLPRPRPRPYQEPRP,-0.255
